Measurements from patent US20220324953A1 (JIANGSU HENGRUI MEDICINE, published 2022).

T1: human CTGF protein (R&D, Cat No. 9190-CC) (human, UniProt P29279 27-349)
T1 construct: Bought protein; also called CTGF recombinant protein; CTGF (R&D)
T1 sequence: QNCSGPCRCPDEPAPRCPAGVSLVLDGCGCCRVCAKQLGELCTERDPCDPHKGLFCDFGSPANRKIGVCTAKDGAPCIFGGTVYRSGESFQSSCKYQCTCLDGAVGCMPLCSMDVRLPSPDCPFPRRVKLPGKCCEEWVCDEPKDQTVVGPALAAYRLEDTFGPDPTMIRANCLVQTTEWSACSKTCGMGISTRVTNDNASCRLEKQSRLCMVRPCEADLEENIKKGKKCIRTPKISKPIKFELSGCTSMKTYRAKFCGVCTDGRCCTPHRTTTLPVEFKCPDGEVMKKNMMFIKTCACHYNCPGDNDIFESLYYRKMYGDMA

T2: mouse CTGF (antigen of the Biacore assay) (mouse, UniProt P29268 26-348)
T2 construct: also called mouse CTGF protein
T2 sequence (looked up): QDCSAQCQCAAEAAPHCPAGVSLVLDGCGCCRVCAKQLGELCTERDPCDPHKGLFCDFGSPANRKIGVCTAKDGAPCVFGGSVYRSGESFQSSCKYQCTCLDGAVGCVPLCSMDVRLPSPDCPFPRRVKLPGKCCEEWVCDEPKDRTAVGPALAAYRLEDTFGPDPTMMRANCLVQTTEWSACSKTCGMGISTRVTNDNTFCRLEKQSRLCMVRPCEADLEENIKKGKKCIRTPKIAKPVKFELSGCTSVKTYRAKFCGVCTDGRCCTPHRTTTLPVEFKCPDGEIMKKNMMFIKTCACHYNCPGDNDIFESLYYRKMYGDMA

T3: human CTGF (antigen of the Biacore assays) (human, UniProt P29279 27-349)
T3 construct: also called antigen human CTGF; human CTGF protein
T3 sequence (looked up): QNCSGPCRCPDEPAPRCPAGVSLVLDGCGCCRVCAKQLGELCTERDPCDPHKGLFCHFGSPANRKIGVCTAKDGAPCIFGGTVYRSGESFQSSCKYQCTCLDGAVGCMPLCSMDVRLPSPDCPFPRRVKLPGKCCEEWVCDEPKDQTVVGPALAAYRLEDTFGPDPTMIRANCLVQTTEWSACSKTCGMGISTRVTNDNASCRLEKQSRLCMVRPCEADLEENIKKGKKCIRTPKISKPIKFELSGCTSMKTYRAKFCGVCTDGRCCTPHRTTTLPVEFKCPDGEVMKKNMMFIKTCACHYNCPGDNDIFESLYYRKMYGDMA


How the values were obtained:
[1] = target: T1, human CTGF protein (R&D, Cat No. …); test: ELISA, plate coated with CTGF (R&D 9190-CC)
Method: The binding activity of anti-human CTGF antibody to human CTGF protein was tested by ELISA assay and Biacore. A 96-well microtiter plate was directly coated with the CTGF recombinant protein. The signal strength upon the addition of the antibody was used to determine the binding activity of the antibody to CTGF. The specific experimental procedures were as follows:
The CTGF protein (R&D, Cat No. 9190-CC) was diluted with PBS, pH 7.4 (Shanghai Yuanpei, Cat No. B320) buffer to a concentration of 0.2 μg/ml, 50 μl/well of which was added into the 96-well microtiter plate (Corning, Cat No. CLS3590-100EA), and incubated in an incubator at 37° C. for 2 hours or at 4° C. overnight (16-18 hours). The liquid was removed, 250 μl/ well blocking solution (5% skim milk (BD skim milk, Cat No.232100) diluted in PBS) was added, and incubated in an incubator at 37° C. for 3 hours or at 4° C. overnight (16-18 hours) for blocking. After the blocking was finished, the blocking solution was removed, the plate was washed for 5 times with PBST buffer (PBS containing 0.1% Tween-20, pH 7.4), 50 μl/well of various concentrations of each of the test antibodies (antibodies purified from hybridoma or humanized antibodies) diluted with sample dilution solution were added, and incubated in an incubator at 37° C. for 1 hours. After the incubation was finished, the plate was washed for 3 times with PBST, 50 μl/well of HRP-labeled goat anti-mouse secondary antibody (Jackson Immuno Research, Cat No. 115-035-003) or goat anti-human secondary antibody (Jackson Immuno Research, Cat No. 109-035-003) diluted with sample dilution solution was added, and incubated at 37° C. for 1 hour. The plate was washed for 3 times with PBST, 50 μl/well of TMB chromogenic substrate (KPL, Cat No. 52-00-03) was added, incubated at room temperature for 5-10min, and 50 μl/well of 1 M H₂SO₄ was added to stop the reaction. The absorbance value was read by a microplate reader (Molecular Devices, VERSA max) at a wavelength of 450 nm, and the data was analyzed with GraphPad Prism 5. The binding of CTGF antibody to human CTGF protein was calculated as EC50 value.

[2] = target: T2, mouse CTGF (antigen of the Biacore …); test: Biacore, antibody captured on Protein A, mouse CTGF in flow, 1:1 fit
Text: A certain amount of each of the test antibodies was affinity-captured with Protein A biosensor chip (Cat. # 29127556, GE), and then a certain concentration of human or mouse CTGF was allowed to flow through the surface of the chip. The reaction signals were detected in real time with Biacore instrument to generate a binding and dissociation curve. After the dissociation was completed in each cycle, the biosensor chip was washed and regenerated with Glycine-HCl regeneration solution pH 1.5 (Cat. # BR-1003-54, GE). The running buffer for the assay was 1×HBS-EP buffer solution (Cat. # BR-1001-88, GE).

[3] = target: T3, human CTGF (antigen of the Biacore …); test: Biacore, CTGF immobilised, antibody 150 µg/ml then 50 nM TGF-β1 (competitor TGF-β1)
Method: First, the antigen human CTGF was immobilized onto a CMS biosensor chip (Cat. # BR-1005-30, GE) by amino coupling, with an immobilization level of 1500 RU, and then a high concentration of CTGF antibody (150 μg/ml) was allowed to flow through the surface of the chip for 150 s; 50 nM TGF-β1 protein was injected for 120 s, and the reaction signals were detected in real time with the Biacore T200 instrument to generate a binding and dissociation curve. After the dissociation was completed in each of the experimental cycles, the biosensor chip was washed and regenerated with regeneration buffer.
The resulting experimental data were statistically analyzed with GE Biacore T200 Evaluation version 3.0 software.

Binder	EC50 [1]	Kd [2]	koff [2]	kon [2]	Function-blocking percentage (%) [3]
Hu164-77wl (antibody, human IgG1, lambda, V domains shown) VH: EVQLQESGPGLVKPSQTLSLTCTVSGFSISTFGVHWIRQHPGKGLEWIGVIWRRGGTDYNAAFMSRVTISKDTSKNQVSLKLSSVTAADTAVYYCARDGGFDYWGQGTTVTVSS VL: ETVVTQEPSLTVSPGGTVTLTCRSSIGAVTTSNYANWVQQKPGQAFRGLIGGTSNRAPWTPARFSGSLLGGKAALTLSGVQPEDEAEYYCALWYSTHYVFGGGTKLTVLG	0.055 nM	0.148 nM	0.00883 s⁻¹	5.98e+07 M⁻¹ s⁻¹	
Hu164-57wl (antibody, human IgG1, lambda, V domains shown) VH: EVTLKESGPVLVKPTETLTLTCTVSGFSLSTFGVHWIRQPPGKALEWLAVIWRRGGTDYNAAFMSRLTISKDTSKSQVVLTMTNMDPVDTATYYCARDGGFDYWGQGTTVTVSS VL: ETVVTQEPSLTVSPGGTVTLTCRSSIGAVTTSNYANWVQQKPGQAFRGLIGGTSNRAPWTPARFSGSLLGGKAALTLSGVQPEDEAEYYCALWYSTHYVFGGGTKLTVLG	0.044 nM	0.0322 nM	0.00237 s⁻¹	7.35e+07 M⁻¹ s⁻¹	
Hu147-22wk (antibody, human IgG1, kappa, V domains shown) VH: EVQLVESGGGLVQPGGSLRLSCAASGFTFNTYAMNWVRQAPGKGLEWVARIRTKSNNYATYYADSVKDRFTISRDDSKNSLYLQMNSLKTEDTAVYYCVETGFAYWDQGTLVTVSS VL: EIVLTQSPATLSLSPGERATLSCSASSSVSYMHWFQQKPGQSPKLLIYSTSNLASGIPARFSGSGSGTDYTLTISSLEPEDFAVYYCQQRSSYPLTFGQGTKLEIKR	0.056 nM				52.3%
Hu147-14wk (antibody, human IgG1, kappa, V domains shown) VH: EVQLVESGGGLVQPGGSLRLSCAASGFTFSTYAMNWVRQAPGKGLEWVGRIRTKSNNYATYYADSVKDRFTISRDDSKNSLYLQMNSLKTEDTAVYYCVETGFAYWDQGTLVTVSS VL: DIQMTQSPSSLSASVGDRVTITCSASSSVSYMHWFQQKPGKSPKLLIYSTSNLASGVPSRFSGSGSGTDYTLTISSLQPEDFATYYCQQRSSYPLTFGQGTKLEIKR	0.073 nM				50.9%
Hu147-24wk (antibody, human IgG1, kappa, V domains shown) VH: EVQLVESGGGLVQPGGSLRLSCAASGFTFNTYAMNWVRQAPGKGLEWVARIRTKSNNYATYYADSVKDRFTISRDDSKNSLYLQMNSLKTEDTAVYYCVETGFAYWDQGTLVTVSS VL: DIQMTQSPSSLSASVGDRVTITCSASSSVSYMHWFQQKPGKSPKLLIYSTSNLASGVPSRFSGSGSGTDYTLTISSLQPEDFATYYCQQRSSYPLTFGQGTKLEIKR	0.048 nM				52.8%
Hu147-15wk (antibody, human IgG1, kappa, V domains shown) VH: EVQLVESGGGLVQPGGSLRLSCAASGFTFSTYAMNWVRQAPGKGLEWVGRIRTKSNNYATYYADSVKDRFTISRDDSKNSLYLQMNSLKTEDTAVYYCVETGFAYWDQGTLVTVSS VL: DIQLTQSPSSLSASVGDRVTITCSASSSVSYMHWFQQKPGKSPKLWIYSTSNLASGVPSRFSGSGSGTDYTLTISSLQPEDFATYYCQQRSSYPLTFGQGTKLEIKR	0.034 nM				52.3%
Hu147-21wk (antibody, human IgG1, kappa, V domains shown) VH: EVQLVESGGGLVQPGGSLRLSCAASGFTFNTYAMNWVRQAPGKGLEWVARIRTKSNNYATYYADSVKDRFTISRDDSKNSLYLQMNSLKTEDTAVYYCVETGFAYWDQGTLVTVSS VL: EIVLTQSPATLSLSPGERATLSCSASSSVSYMHWFQQKPGQSPRLLIYSTSNLASGIPARFSGSGSGTDYTLTISSLEPEDFAVYYCQQRSSYPLTFGQGTKLEIKR	0.067 nM				51.6%

Other lines, results leading:

EC50 [1]	Kd [2]	koff [2]	kon [2]	Function-blocking percentage (%) [3]	Binder
0.055 nM	0.084 nM	0.0044 s⁻¹	5.24e+07 M⁻¹ s⁻¹		Hu164-87wl (antibody, human IgG1, lambda, V domains shown) VH: EVQLQESGPGLVKPSQTLSLTCTVSGFSISTFGVHWIRQHPGKGLEWLGVIWRRGGTDYNAAFMSRLTISKDTSKNQVSFKLSSVTAADTAVYYCARDGGFDYWGQGTTVTVSS VL: ETVVTQEPSLTVSPGGTVTLTCRSSIGAVTTSNYANWVQQKPGQAFRGLIGGTSNRAPWTPARFSGSLLGGKAALTLSGVQPEDEAEYYCALWYSTHYVFGGGTKLTVLG
0.069 nM	0.133 nM	0.0076 s⁻¹	5.7e+07 M⁻¹ s⁻¹		Hu164-68wl (antibody, human IgG1, lambda, V domains shown) VH: EVTLKESGPVLVKPTETLTLTCTVSGFSLSTFGVHWIRQPPGKGLEWLGVIWRRGGTDYNAAFMSRLTISKDTSKSQVVFTMTNMDPVDTATYYCARDGGFDYWGQGTTVTVSS VL: ETVVTQEPSFSVSPGGTVTLTCRSSIGAVTTSNYANWVQQTPGQAFRGLIGGTSNRAPGVPDRFSGSILGNKAALTITGAQADDESDYYCALWYSTHYVFGGGTKLTVLG
0.063 nM	0.126 nM	0.00774 s⁻¹	6.17e+07 M⁻¹ s⁻¹		Hu164-69wl (antibody, human IgG1, lambda, V domains shown) VH: EVTLKESGPVLVKPTETLTLTCTVSGFSLSTFGVHWIRQPPGKGLEWLGVIWRRGGTDYNAAFMSRLTISKDTSKSQVVFTMTNMDPVDTATYYCARDGGFDYWGQGTTVTVSS VL: ESVVTQPPSVSGAPGQRVTISCRSSIGAVTTSNYANWVQQLPGTAFKGLIGGTSNRAPGVPDRFSGSKSGTSASLAITGLQAEDEADYYCALWYSTHYVFGGGTKLTVLG
0.067 nM				41.3%	positive control CTGF antibody mAb1 (antibody, V domains shown, Positive control, from CN1829740B; also called pamrevlumab; FG-3019) VH: EGQLVQSGGGLVHPGGSLRLSCAGSGFTFSSYGMHWVRQAPGKGLEWVSGIGTGGGTYSTDSVKGRFTISRDNAKNSLYLQMNSLRAEDMAVYYCARGDYYGSGSFFDCWGQGTLVTVSS VL: DIQMTQSPSSLSASVGDRVTITCRASQGISSWLAWYQQKPEKAPKSLIYAASSLQSGVPSRFSGSGSGTDFTLTISSLQPEDFATYYCQQYNSYPPTFGQGTKLEIKR
